The values that follow are results of earlier work, collected in paper PMC6191488.

pKd: −log10 of the molar value.

As usually defined, the pKd is the negative decadic logarithm of the Kd, by convention in mol/L.

The target in the data set is IgE Fc (Homo sapiens) (UniProt P01854).
Sequence of UniProt P01854 (P01854 104-427): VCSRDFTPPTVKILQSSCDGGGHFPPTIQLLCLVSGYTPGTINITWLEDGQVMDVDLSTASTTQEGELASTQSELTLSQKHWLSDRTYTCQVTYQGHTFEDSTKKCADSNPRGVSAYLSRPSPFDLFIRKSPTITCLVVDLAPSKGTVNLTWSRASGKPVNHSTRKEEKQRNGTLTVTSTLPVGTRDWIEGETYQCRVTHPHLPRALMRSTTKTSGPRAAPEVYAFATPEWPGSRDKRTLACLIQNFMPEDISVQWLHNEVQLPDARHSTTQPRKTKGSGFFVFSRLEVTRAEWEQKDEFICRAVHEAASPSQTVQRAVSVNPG

“FcεRI alpha chain ECD (from UniProt P12319)”: the pKd is 9.43.
